Measured values: the supplement of paper PMC7877785
± gives the uncertainty stated by the source.

Test: self-splicing fitness, log relative to wild type (ln ratio); higher = more splicing; Tetrahymena group I intron in knt gene, E. coli kanamycin selection, DiMSum; sequences stand for … in CUCUCU…GGAGGGAAAAGUUAUCAGGCAUGCACCUGGUAGCUAGUCUUUAAACCAAUAGAUUGCAUCGGUUUAAAAGGCAAGACCGUCAAAUUGCGGGAAAGGGGUCAACAGCCGUUCAGUACCAAGUCUCAGGGGAAACUUUGAGAUGGCCUUGCAAAGGGUAUGGUAAUAAGCUGACGGACAUGGUCCUAACCACGCAGCCAAGUCCUAAGUCAACAGAUCUUCUGUUGAUAUGGAUGCAGUUCACAGACUAAAUGUCGGUCGGGGAAGAUGUAUUCUUCUCAUAAGAUAUAGUCGGACCUCUCCUUAAUGGGAGCUAGCGGAUGAAGUGAUGCAACACUGGAGCCGCUGGGAACUAAUUUGUAUGCGAAAGUAUAUUGAUUAGUUUUGGAGUACUCGUGGUCG
Summary of the method: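 A randomised library covering all eight P1ex-region intron nucleotides was built with the intron in the knt kanamycin-resistance gene on pET-22b(+) and held in E. coli BL21(DE3). Cells were grown overnight at 37°C or 30°C on LB agar, with or without 25 μg/mL kanamycin, plus 100 μg/mL carbenicillin, 50 μM IPTG and 0.2% rhamnose, and pooled colonies were amplicon-sequenced on an Illumina HiSeq 2500. DiMSum fitness is the error-weighted combination of wild-type-normalised replicate fold changes, kanamycin versus none.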

| Sequence | self-splicing fitness (ln) (30 °C) | self-splicing fitness (ln) (37 °C) |
| --- | --- | --- |
| UGCAAGCAAUAUUACGGAAU | -2.88 ± 0.19 | -2.45 ± 0.2 |
| AUCCAGCAAUAUUACGAACU | -1.98 ± 0.15 | -0.753 ± 0.18 |
| UCUCAGCAAUAUUACGCCCA | -0.778 ± 0.12 | -1.88 ± 0.18 |
| AUCAAGCAAUAUUACGUUAG | -3.1 ± 0.14 | -3.05 ± 0.2 |
| AGAUAGCAAUAUUACGUGCA | -0.725 ± 0.13 | -0.616 ± 0.15 |
| AUGCAGCAAUAUUACGGUAC | -2.35 ± 0.095 | -1.52 ± 0.14 |
| AUCAAGCAAUAUUACGCCAG | -3.08 ± 0.2 | -1.32 ± 0.23 |
| CUGGAGCAAUAUUACGAAGG | -3.43 ± 0.28 | -1.97 ± 0.27 |
| CACGAGCAAUAUUACGCGCG | -2.9 ± 0.24 | -1.25 ± 0.18 |
| CUCGAGCAAUAUUACGCGUA | -2.97 ± 0.48 | -1.59 ± 0.23 |
| UGCAAGCAAUAUUACGGAUC | -3.09 ± 0.17 | -2.38 ± 0.16 |
| AAACAGCAAUAUUACGCUAU | -1.87 ± 0.1 | -2.23 ± 0.16 |
| UAAUAGCAAUAUUACGUUUG | -0.989 ± 0.099 | 0.00265 ± 0.12 |
| AGUUAGCAAUAUUACGGGUU | -1.38 ± 0.11 | -1.53 ± 0.15 |
| AGGAAGCAAUAUUACGAUUG | -3.96 ± 0.36 | -3.3 ± 0.28 |
| GUGCAGCAAUAUUACGGGAU | -1.66 ± 0.066 | -1.32 ± 0.081 |
| AACAAGCAAUAUUACGCCGU | -1.5 ± 0.096 | -0.696 ± 0.094 |
| CCUGAGCAAUAUUACGCACG | -3.16 ± 0.47 | -2.09 ± 0.37 |
| AAAAAGCAAUAUUACGUAGU | -2.1 ± 0.076 | -1.69 ± 0.091 |
| CUUCAGCAAUAUUACGAAAC | -0.955 ± 0.5 |  |
| UUGAAGCAAUAUUACGGUUC | -3.01 ± 0.2 | -2.08 ± 0.27 |
| UGGGAGCAAUAUUACGCUCG |  | -1.25 ± 0.46 |
| CGGGAGCAAUAUUACGAUUA |  | -3.69 ± 0.42 |
| AUAUAGCAAUAUUACGACGA | -1.1 ± 0.22 | -0.564 ± 0.28 |
| UGACAGCAAUAUUACGAACG | 0.00619 ± 0.095 | 0.256 ± 0.1 |

| Sequence | self-splicing fitness (ln) (30 °C) | self-splicing fitness (ln) (37 °C) |
| --- | --- | --- |
| AUAAAGCAAUAUUACGUCCG | -0.335 ± 0.11 | 0.106 ± 0.13 |
| CGAUAGCAAUAUUACGCUUC | -3.11 ± 0.26 | -2.99 ± 0.47 |
| AUGUAGCAAUAUUACGGGGC | -4.82 ± 0.34 | -2.87 ± 0.19 |
| CACAAGCAAUAUUACGAGAG | -3.2 ± 0.12 | -1.32 ± 0.085 |
| UAUUAGCAAUAUUACGUUUC | -3.79 ± 0.28 | -2.98 ± 0.34 |
| AAAGAGCAAUAUUACGUCAC | -2.56 ± 0.5 | -2.76 ± 0.31 |
| UGAAAGCAAUAUUACGGCUC | -1.4 ± 0.13 | -0.842 ± 0.12 |
| CCGCAGCAAUAUUACGACAA | -3.68 ± 0.23 | -2.21 ± 0.24 |
| CCUAAGCAAUAUUACGUACA | -3.4 ± 0.5 | -2.9 ± 0.38 |
| UCAAAGCAAUAUUACGACGU | -0.985 ± 0.063 | 0.289 ± 0.069 |
| ACUGAGCAAUAUUACGGGCC | -2.33 ± 0.38 | -2.51 ± 0.23 |
| CAUGAGCAAUAUUACGUACA | -3.1 ± 0.22 | -2.17 ± 0.3 |
| GGAAAGCAAUAUUACGCAGG | -2.91 ± 0.15 | -2.71 ± 0.22 |
| GAGUAGCAAUAUUACGUGGC | -2.33 ± 0.15 | -2.03 ± 0.28 |
| GUGUAGCAAUAUUACGUGUU | -3.14 ± 0.17 | -1.58 ± 0.12 |
| UGCUAGCAAUAUUACGGUAC |  | -0.887 ± 0.39 |
| AGUCAGCAAUAUUACGAUGU | 0.202 ± 0.062 | 0.34 ± 0.087 |
| CCAUAGCAAUAUUACGGCUC | -2.85 ± 0.36 | -2.59 ± 0.45 |
| UAGUAGCAAUAUUACGGGAU | -3.3 ± 0.23 | -1.97 ± 0.18 |
| UAGAAGCAAUAUUACGAGUU |  | -2.07 ± 0.33 |
| CUUCAGCAAUAUUACGUUCG | -0.922 ± 0.067 | -0.372 ± 0.092 |
| GGGCAGCAAUAUUACGGGGU |  | -2.84 ± 0.34 |
| UCGUAGCAAUAUUACGCCGU | -1.52 ± 0.14 | -0.646 ± 0.16 |
| GCAUAGCAAUAUUACGCACC | -1.28 ± 0.21 |  |
| CAACAGCAAUAUUACGGUGG | -2.15 ± 0.083 | -0.724 ± 0.082 |
